Source: patent publication US20120316071A1 (published 2012)
Numbering of substitutions follows the chain as printed. In names and notes the source's numbering stands.

B1: Fab VH5-51_IGHD5-18*01>3_IGHJ4*01 G100K/G104T G24T/S28R/G35V (KT TRV) & V3-4_IGLJ1*01 (wildtype) (Fab, V domains shown)
VH: EVQLVQSGAEVKKPGESLKISCKTSGYRFTSYWIVWVRQMPGKGLEWMGIIYPGDSDTRYSPSFQGQVTISADKSISTAYLQWSSLKASDTAMYYCARRKYSYTYDYFDYWGQGTLVTVSS
VL: QTVVTQEPSFSVSPGGTVTLTCGLSSGSVSTSYYPSWYQQTPGQAPRTLIYSTNTRSSGVPDRFSGSILGNKAALTITGAQADDESDYYCVLYMGSGISYVFGTGTKVTVL
notes: Fab; Expressed in E. coli with CH1 (plasmid A, His6 and Flag tags) and lambda CL (plasmid E); also called H:KT TRV & L:wt
B2: Fab VH5-51_IGHD5-18*01>3_IGHJ4*01 G100K/G104T G24A/S28R/G35V (KT ARV) & V3-4_IGLJ1*01 V91L/S96P S52V (Fab, V domains shown)
VH: B1 VH
VL: B1 VL with S52V, V91L, S96P
notes: Fab; Expressed in E. coli with CH1 (plasmid A, His6 and Flag tags) and lambda CL (plasmid E); The light-chain S52 variants were made on the KT TRV heavy chain (T0104); also called G100K/G104T G24A/S28R/G35V & V91L/S96P S52V
B3: Fab VH5-51_IGHD5-18*01>3_IGHJ4*01 & V3-4_IGLJ1*01 (parental, wildtype) (Fab, V domains shown)
VH: B1 VH with T24G, R28S, V35G, K100G, T104G
VL: B1 VL
notes: Fab; Expressed in E. coli with CH1 (plasmid A, His6 and Flag tags) and lambda CL (plasmid E); also called Wildtype & Wildtype; parent Hit Fab
B4: Fab VH5-51_IGHD5-18*01>3_IGHJ4*01 G100K & V3-4_IGLJ1*01 (wildtype) (Fab, V domains shown)
VH: B1 VH with T24G, R28S, V35G, T104G
VL: B1 VL
notes: Fab; Expressed in E. coli with CH1 (plasmid A, His6 and Flag tags) and lambda CL (plasmid E); also called G100K & Wildtype
B5: Fab VH5-51_IGHD5-18*01>3_IGHJ4*01 G100K/G104T G24L/S28R/G35V (KT LRV) & V3-4_IGLJ1*01 V91L/S96P S52T (Fab, V domains shown)
VH: B1 VH
VL: B1 VL with S52T, V91L, S96P
notes: Fab; Expressed in E. coli with CH1 (plasmid A, His6 and Flag tags) and lambda CL (plasmid E); also called G100K/G104T G24L/S28R/G35V & V91L/S96P S52T
B6: Fab VH5-51_IGHD5-18*01>3_IGHJ4*01 G100K/G104T G24L/S28R/G35V (KT LRV) & V3-4_IGLJ1*01 V91L/S96P S52M (Fab, V domains shown)
VH: B1 VH
VL: B1 VL with S52M, V91L, S96P
notes: Fab; Expressed in E. coli with CH1 (plasmid A, His6 and Flag tags) and lambda CL (plasmid E); also called G100K/G104T G24L/S28R/G35V & V91L/S96P S52M
B7: Fab VH5-51_IGHD5-18*01>3_IGHJ4*01 G100K/G104T G24A/S28R/G35V (KT ARV) & V3-4_IGLJ1*01 V91L/S96P S52P (Fab, V domains shown)
VH: B1 VH
VL: B1 VL with S52P, V91L, S96P
notes: Fab; Expressed in E. coli with CH1 (plasmid A, His6 and Flag tags) and lambda CL (plasmid E); also called G100K/G104T G24A/S28R/G35V & V91L/S96P S52P
B8: Fab VH5-51_IGHD5-18*01>3_IGHJ4*01 G100K/G104T G24A/S28R/G35V (KT ARV) & V3-4_IGLJ1*01 V91L/S96P S52H (Fab, V domains shown)
VH: B1 VH
VL: B1 VL with S52H, V91L, S96P
notes: Fab; Expressed in E. coli with CH1 (plasmid A, His6 and Flag tags) and lambda CL (plasmid E); Fab H:KT TRV & L:LP S52H; also called G100K/G104T G24A/S28R/G35V & V91L/S96P S52H
B9: Fab VH5-51_IGHD5-18*01>3_IGHJ4*01 G100K/G104T G24L/S28R/G35V (KT LRV) & V3-4_IGLJ1*01 V91L/S96P S52Q (Fab, V domains shown)
VH: B1 VH
VL: B1 VL with S52Q, V91L, S96P
notes: Fab; Expressed in E. coli with CH1 (plasmid A, His6 and Flag tags) and lambda CL (plasmid E); also called G100K/G104T G24L/S28R/G35V & V91L/S96P S52Q
B10: Fab VH5-51_IGHD5-18*01>3_IGHJ4*01 G100K/G104T G24T/S28R/G35V (KT TRV) & V3-4_IGLJ1*01 V91L/S96P (LP) (Fab, V domains shown)
VH: B1 VH
VL: B1 VL with V91L, S96P
notes: Fab; Expressed in E. coli with CH1 (plasmid A, His6 and Flag tags) and lambda CL (plasmid E); also called H:KT TRV & L:LP
B11: Fab VH5-51_IGHD5-18*01>3_IGHJ4*01 G100K/G104T G24L/S28R/G35V (KT LRV) & V3-4_IGLJ1*01 V91L/S96P S52F (Fab, V domains shown)
VH: B1 VH
VL: B1 VL with S52F, V91L, S96P
notes: Fab; Expressed in E. coli with CH1 (plasmid A, His6 and Flag tags) and lambda CL (plasmid E); also called G100K/G104T G24L/S28R/G35V & V91L/S96P S52F
B12: Fab VH5-51_IGHD5-18*01>3_IGHJ4*01 G100K/G104T G24A/S28R/G35V (KT ARV) & V3-4_IGLJ1*01 V91L/S96P S52I (Fab, V domains shown)
VH: B1 VH
VL: B1 VL with S52I, V91L, S96P
notes: Fab; Expressed in E. coli with CH1 (plasmid A, His6 and Flag tags) and lambda CL (plasmid E); also called G100K/G104T G24A/S28R/G35V & V91L/S96P S52I
B13: Fab VH5-51_IGHD5-18*01>3_IGHJ4*01 G100K/G104T G24T/S28R/G35V (KT TRV) & V3-4_IGLJ1*01 V91L/S96P S52G (LP S52G) (Fab, V domains shown)
VH: B1 VH
VL: B1 VL with S52G, V91L, S96P
notes: Fab; Expressed in E. coli with CH1 (plasmid A, His6 and Flag tags) and lambda CL (plasmid E); also called H:KT TRV & L:LP S52G
B14: Fab VH5-51_IGHD5-18*01>3_IGHJ4*01 G100K/G104T (KT) & V3-4_IGLJ1*01 (wildtype) (Fab, V domains shown)
VH: B1 VH with T24G, R28S, V35G
VL: B1 VL
notes: Fab; Expressed in E. coli with CH1 (plasmid A, His6 and Flag tags) and lambda CL (plasmid E); also called H:KT & L:wt; KT double mutant
B15: Fab VH1-46_IGHD6-6*01_IGHJ1*01 S102A/S103P/S104F (APF) & L6_IGKJ1*01 S30T (Fab, V domains shown)
VH: QVQLVQSGAEVKKPGASVKVSCKASGYTFTSYYMHWVRQAPGQGLEWMGIINPSGGSTSYAQKFQGRVTMTRDTSTSTVYMELSSLRSEDTAVYYCAREEYAPFSAEYFQHWGQGTLVTVSS
VL: EIVLTQSPATLSLSPGERATLSCRASQSVTSYLAWYQQKPGQAPRLLIYDASNRATGIPARFSGSGSGTDFTLTISSLEPEDFAVYYCQQRSNWPPWTFGQGTKVEIKR
notes: Tested as a Fab; Expressed in E. coli from Plasmid A (CH1 with His6 and Flag tags) and Plasmid C (kappa CL); also called APF & S30T
B16: Fab VH1-46_IGHD6-6*01_IGHJ1*01 S102A/S103P/S104F/H111F (APFF) & L6_IGKJ1*01 S28V (Fab, V domains shown)
VH: B15 VH with H111F
VL: B15 VL with S28V, T30S
notes: Tested as a Fab; Expressed in E. coli from Plasmid A (CH1 with His6 and Flag tags) and Plasmid C (kappa CL); also called APFF & S28V
B17: Fab VH1-46_IGHD6-6*01_IGHJ1*01 S102A/S103P/S104F/H111F (APFF) & L6_IGKJ1*01 S28K (Fab, V domains shown)
VH: B15 VH with H111F
VL: B15 VL with S28K, T30S
notes: Tested as a Fab; Expressed in E. coli from Plasmid A (CH1 with His6 and Flag tags) and Plasmid C (kappa CL); also called APFF & S28K
B18: Fab VH1-46_IGHD6-6*01_IGHJ1*01 S102A/S103P/S104F (APF) & L6_IGKJ1*01 S30W (Fab, V domains shown)
VH: B15 VH
VL: B15 VL with T30W
notes: Tested as a Fab; Expressed in E. coli from Plasmid A (CH1 with His6 and Flag tags) and Plasmid C (kappa CL); also called APF & S30W
B19: Fab VH1-46_IGHD6-6*01_IGHJ1*01 S102A/S103P/S104F (APF) & L6_IGKJ1*01 Y32S (Fab, V domains shown)
VH: B15 VH
VL: B15 VL with T30S, Y32S
notes: Tested as a Fab; Expressed in E. coli from Plasmid A (CH1 with His6 and Flag tags) and Plasmid C (kappa CL); also called APF & Y32S
B20: Fab VH1-46_IGHD6-6*01_IGHJ1*01 S102A/S103P/S104F/H111F (APFF) & L6_IGKJ1*01 S28G (Fab, V domains shown)
VH: B15 VH with H111F
VL: B15 VL with S28G, T30S
notes: Tested as a Fab; Expressed in E. coli from Plasmid A (CH1 with His6 and Flag tags) and Plasmid C (kappa CL); also called APFF & S28G
B21: Fab VH1-46_IGHD6-6*01_IGHJ1*01 S102A/S103P/S104F/H111F (APFF) & L6_IGKJ1*01 S28F (Fab, V domains shown)
VH: B15 VH with H111F
VL: B15 VL with S28F, T30S
notes: Tested as a Fab; Expressed in E. coli from Plasmid A (CH1 with His6 and Flag tags) and Plasmid C (kappa CL); also called APFF & S28F

These binders were tested against T1, Recombinant Human DLL4 (delta-like protein 4) (human, UniProt Q9NR61 27-524) (assay: ELISA, DLL4 coated on plate, Fab at 50 nM (2-fold dilution series), absorbance at 450 nm).
T1 construct: Bought recombinant human DLL4 coated on the ELISA plate; also called rHuman DLL4

Row | Binder | ELISA signal
1 | B1 | 0.32
2 | B2 | 0.74
3 | B3 | 0.16
4 | B4 | 0.19
5 | B5 | 0.79
6 | B6 | 0.8
7 | B7 | 0.79
8 | B8 | 0.91
9 | B9 | 0.81
10 | B10 | 0.81
11 | B11 | 0.69
12 | B12 | 0.82
13 | B13 | 1.02
14 | B14 | 0.18

What follows are binders tested against T1, Recombinant Human DLL4 (delta-like …) (assay: ELISA, DLL4 coated on plate, Fab at 12.5 nM (2-fold dilution series), absorbance at 450 nm).

Row | Binder | ELISA signal
15 | B1 | 0.23
16 | B2 | 0.43
17 | B3 | 0.17
18 | B4 | 0.19
19 | B5 | 0.41
20 | B6 | 0.41
21 | B7 | 0.43
22 | B8 | 0.5
23 | B9 | 0.47
24 | B10 | 0.45
25 | B11 | 0.42
26 | B12 | 0.4
27 | B13 | 0.63
28 | B14 | 0.18

Each binder was assayed against T1, Recombinant Human DLL4 (delta-like …) (assay: ELISA, DLL4 coated on plate, Fab at 25 nM (2-fold dilution series), absorbance at 450 nm).

Row | Binder | ELISA signal
29 | B1 | 0.26
30 | B2 | 0.6
31 | B3 | 0.18
32 | B4 | 0.18
33 | B5 | 0.62
34 | B6 | 0.59
35 | B7 | 0.59
36 | B8 | 0.73
37 | B9 | 0.67
38 | B10 | 0.58
39 | B11 | 0.49
40 | B12 | 0.6
41 | B13 | 0.9
42 | B14 | 0.16

What follows are binders tested against T1, Recombinant Human DLL4 (delta-like …) (assay: ELISA, DLL4 coated on plate, Fab at 100 nM (2-fold dilution series), absorbance at 450 nm).

Row | Binder | ELISA signal
43 | B1 | 0.45
44 | B2 | 0.95
45 | B3 | 0.17
46 | B4 | 0.2
47 | B5 | 0.99
48 | B6 | 1.01
49 | B7 | 1
50 | B8 | 1.09
51 | B9 | 0.96
52 | B10 | 1
53 | B11 | 0.99
54 | B12 | 1.04
55 | B13 | 1.14
56 | B14 | 0.18

What follows are binders tested against T2, Recombinant Human DLL4 (R&D Systems Cat#1506-D4/CF) (human, UniProt Q9NR61 27-524) (assay: ECL (MSD) multispot binding assay, DLL4 spotted on plate, Fab in solution).
T2 construct: Bought recombinant protein; also called delta-like protein 4; rHuman DLL4

Row | Binder | ECL signal | Signal/Blank
57 | B15 | 1020 | 4.9
58 | B16 | 83100 | 351
59 | B17 | 124000 | 314
60 | B18 | 791 | 4.3
61 | B19 | 1030 | 4.9
62 | B20 | 183000 | 533
63 | B21 | 134000 | 537
